Measured values published in patent US20200038493.

B1: recombinant IpaH9.8 from Shigella flexneri (protein)
chain: MLPINNNFSLPQNSFYNTISGTYADYFSAWDKWEKQALPGEERDEAVSRLKECLINNSDELRLDRLNLSSLPDNLPAQITLLNVSYNQLTNLPELPVTLKKLYSASNKLSELPVLPPALESLQVQHNELENLPALPDSLLTMNISYNEIVSLPSLPQALKNLRATRNFLTELPAFSEGNNPVVREYFFDRNQISHIPESILNLRNECSIHISDNPLSSHALQALQRLTSSPDYHGPRIYFSMSDGQQNTLHRPLADAVTAWFPENKQSDVSQIWHAFEHEEHANTFSAFLDRLSDTVSARNTSGFREQVAAWLEKLSASAELRQQSFAVAADATESCEDRVALTWNNLRKTLLVHQASEGLFDNDTGALLSLGREMFRLEILEDIARDKVRTLHFVDEIEVYLAFQTMLAEKLQLSTAVKEMRFYGVSGVTANDLRTAEAMVRSREENEFTDWFSLWGPWHAVLKRTEADRWAQAEEQKYEMLENEYPQRVADRLKASGLSGDADAEREAGAQVMRETEQQIYRQLTDEVLALRLFENGSQLHHSHHHHHH
B2: recombinant SlrP from Salmonella enterica serovar Typhimurium (protein)
chain: MFNITNIQSTARHQSISNEASTEVPLKEEIWNKISAFFSSEHQVEAQNCIAYLCHPPETASPEEIKSKFECLRMLAFPAYADNIQYSRGGADQYCILSENSQEILSIVFNTEGYTVEGGGKSVTYTRVTESEQASSASGSKDAVNYELIWSEWVKEAPAKEAANREEAVQRMRDCLKNNKTELRLKILGLTTIPAYIPEQITTLILDNNELKSLPENLQGNIKTLYANSNQLTSIPATLPDTIQEMELSINRITELPERLPSALQSLDLFHNKISCLPENLPEELRYLSVYDNSIRTLPAHLPSEITHLNVQSNSLTALPETLPPGLKTLEAGENALTSLPASLPPELQVLDVSKNQITVLPETLPPTITTLDVSRNALTNLPENLPAALQIMQASRNNLVRLPESLPHFRGEGPQPTRIIVEYNPFSERTIQNMQRLMSSVDYQGPRVLFAMGDFSIVRVTRPLHQAVQGWLTSLEEEDVNQWRAFEAEANAAAFSGFLDYLGDTQNTRHPDFKEQVSAWLMRLAEDSALRETVFIIAMNATISCEDRVTLAYHQMQEATLVHDAERGAFDSHLAELIMAGREIFRLEQIESLAREKVKRLFFIDEVEVFLGFQNQLRESLSLTTMTRDMRFYNVSGITESDLDEAEIRIKMAENRDFHKWFALWGPWHKVLERIAPEEWREMMAKRDECIETDEYQSRVNAELEDLRIADDSDAERTTEVQMDAERAIGIKIMEEINQTLFTEIMENILLKKEVSSLMSAYWRHHHHHH
B3: recombinant SspH1 of Salmonella enterica serovar Typhimurium with C-terminal 6x His-tag (protein)
chain: MFNIRNTQPSVSMQAIAGAAAPEASPEEIVWEKIQVFFPQENYEEAQQCLAELCHPARGMLPDHISSQFARLKALTFPAWEENIQCNRDGINQFCILDAGSKEILSITLDDAGNYTVNCQGYSEAHDFIMDTEPGEECTEFAEGASGTSLRPATTVSQKAAEYDAVWSKWERDAPAGESPGRAAVVQEMRDCLNNGNPVLNVGASGLTTLPDRLPPHITTLVIPDNNLTSLPELPEGLRELEVSGNLQLTSLPSLPQGLQKLWAYNNWLASLPTLPPGLGDLAVSNNQLTSLPEMPPALRELRVSGNNLTSLPALPSGLQKLWAYNNRLTSLPEMSPGLQELDVSHNQLTRLPQSLTGLSSAARVYLDGNPLSVRTLQALRDIIGHSGIRIHFDMAGPSVPREARALHLAVADWLTSAREGEAAQADRWQAFGLEDNAAAFSLVLDRLRETENFKKDAGFKAQISSWLTQLAEDAALRAKTFAMATEATSTCEDRVTHALHQMNNVQLVHNAEKGEYDNNLQGLVSTGREMFRLATLEQIAREKAGTLALVDDVEVYLAFQNKLKESLELTSVTSEMRFFDVSGVTVSDLQAAELQVKTAENSGFSKWILQWGPLHSVLERKVPERFNALREKQISDYEDTYRKLYDEVLKSSGLVDDTDAERTIGVSAMDSAKKEFLDGLRALVDEVLGSYLTARWRLNHHHHHH
B4: recombinant IpaH4.5 from Shigella flexneri (protein)
chain: MKPINNHSFFRSLCGLSCISRLSVEEQCTRDYHRIWDDWAREGTTTENRIQAVRLLKICLDTREPVLNLSLLKLRSLPPLPLHIRELNISNNELISLPENSPLLTELHVNGNNLNILPTLPSQLIKLNISFNRNLSCLPSLPPYLQSLSARFNSLETLPELPSTLTILRIEGNRLTVLPELPHRLQELFVSGNRLQELPEFPQSLKYLKVGENQLRRLSRLPQELLALDVSNNLLTSLPENIITLPICTNVNISGNPLSTHVLQSLQRLTSSPDYHGPQIYFSMSDGQQNTLHRPLADAVTAWFPENKQSDVSQIWHAFEHEEHANTFSAFLDRLSDTVSARNTSGFREQVAAWLEKLSASAELRQQSFAVAADATESCEDRVALTWNNLRKTLLVHQASEGLFDNDTGALLSLGREMFRLEILEDIARDKVRTLHFVDEIEVYLAFQTMLAEKLQLSTAVKEMRFYGVSGVTANDLRTAEAMVRSREENEFTDWFSLWGPWHAVLKRTEADRWAQAEEQKYEMLENEYSQRVADRLKASGLSGDADAEREAGAQVMRETEQQIYRQLTDEVLAHHHHHH
B5: recombinant IpaH2.5 from Shigella flexneri (protein)
chain: MIKSTNIQVIGSGIMHQINNIHSLTLFSLPVSLSPSCNEYYLKVWSEWEKNGTPGEQRNIAFNRLKICLQNQEAELNLSELDLKTLPDLPPQITTLEIRKNLLTHLPDLPPMLKVIHAQFNQLESLPALPETLEELNAGDNKIKELPFLPENLTHLRVHNNRLHILPLLPPELKLLVVSGNRLDSIPPFPDKLEGLALANNFIEQLPELPFSMNRAVLMNNNLTTLPESVLRLAQNAFVNVAGNPLSGHTMRTLQQITTGPDYSGPRIFFSMGNSATISAPEHSLADAVTAWFPENKQSDVSQIWHAFEHEEHANTFSAFLDRLSDTVSARNTSGFREQVAAWLEKLSASAELRQQSFAVAADATESCEDRVALTWNNLRKTLLVHQASEGLFDNDTGALLSLGREMFRLEILEDIARDKVRTLHFVDEIEVYLAFQTMLAEKLQLSTAVKEMRFYGVSGVTANDLRTAEAMVRSREENEFTDWFSLWGPWHAVLKRTEADRWAQAEEQKYEMLENEYSQRVADRLKASGLSGDADAEREAGAQVMRETEQQIYRQLTDEVLAHHHHHH
B6: recombinant IpaH1.4 from Shigella flexneri (protein)
chain: MIKSTNIQAIGSGIMHQINNVYSLTPLSLPMELTPSCNEFYLKTWSEWEKNGTPGEQRNIAFNRLKICLQNQEAELNLSELDLKTLPDLPPQITTLEIRKNLLTHLPDLPPMLKVIHAQFNQLESLPALPETLEELNAGDNKIKELPFLPENLTHLRVHNNRLHILPLLPPELKLLVVSGNRLDSIPPFPDKLEGLALANNFIEQLPELPFSMNRAVLMNNNLTTLPESVLRLAQNAFVNVAGNPLSGHTMRTLQQITTGPDYSGPRIFFSMGNSATISAPEHSLADAVTAWFPENKQSDVSQIWHAFEHEEHANTFSAFLDRLSDTVSARNTSGFREQVAAWLEKLSASAELRQQSFAVAADATESCEDRVALTWNNLRKTLLVHQASEGLFDNDTGALLSLGREMFRLEILEDIARDKVRTLHFVDEIEVYLAFQTMLAEKLQLSTAVKEMRFYGVSGVTANDLRTAEAMVRSREENEFTDWFSLWGPWHAVLKRTEADRWAQAEEQKYEMLENEYSQRVADRLKASGLSGDADAEREAGAQVMRETEQQIYRQLTDEVLALRLSENGSNHIAHHHHHH
B7: recombinant IpaH7.8 from Shigella flexneri (protein)
chain: MFSVNNTHSSVSCSPSINSNSTSNEHYLRILTEWEKNSSPGEERGIAFNRLSQCFQNQEAVLNLSDLNLTSLPELPKHISALIVENNKLTSLPKLPAFLKELNADNNRLSVIPELPESLTTLSVRSNQLENLPVLPNHLTSLFVENNRLYNLPALPEKLKFLHVYYNRLTTLPDLPDKLEILCAQRNNLVTFPQFSDRNNIRQKEYYFHFNQITTLPESFSQLDSSYRINISGNPLSTRVLQSLQRLTSSPDYHGPQIYFSMSDGQQNTLHRPLADAVTAWFPENKQSDVSQIWHAFEHEEHANTFSAFLDRLSDTVSARNTSGFREQVAAWLEKLSASAELRQQSFAVAADATESCEDRVALTWNNLRKTLLVHQASEGLFDNDTGALLSLGREMFRLEILEDIARDKVRTLHFVDEIEVYLAFQTMLAEKLQLSTAVKEMRFYGVSGVTANDLRTAEAMVRSREENEFTDWFSLWGPWHAVLKRTEADRWAQAEEQKYEMLENEYSQRVADRLKASGLSGDADAEREAGAQVMRETEQQIYRQLTDEVLALRLSENGSRLHHSHHHHHH

Experiments:
[1] = molecular target: UbcH5b (E2 ubiquitin-conjugating enzyme), P62837
[2] = molecular target: GST-tagged PKN1, Q16512
Chain of GST-tagged PKN1, Q16512 (Q16512 whole entry, looked up): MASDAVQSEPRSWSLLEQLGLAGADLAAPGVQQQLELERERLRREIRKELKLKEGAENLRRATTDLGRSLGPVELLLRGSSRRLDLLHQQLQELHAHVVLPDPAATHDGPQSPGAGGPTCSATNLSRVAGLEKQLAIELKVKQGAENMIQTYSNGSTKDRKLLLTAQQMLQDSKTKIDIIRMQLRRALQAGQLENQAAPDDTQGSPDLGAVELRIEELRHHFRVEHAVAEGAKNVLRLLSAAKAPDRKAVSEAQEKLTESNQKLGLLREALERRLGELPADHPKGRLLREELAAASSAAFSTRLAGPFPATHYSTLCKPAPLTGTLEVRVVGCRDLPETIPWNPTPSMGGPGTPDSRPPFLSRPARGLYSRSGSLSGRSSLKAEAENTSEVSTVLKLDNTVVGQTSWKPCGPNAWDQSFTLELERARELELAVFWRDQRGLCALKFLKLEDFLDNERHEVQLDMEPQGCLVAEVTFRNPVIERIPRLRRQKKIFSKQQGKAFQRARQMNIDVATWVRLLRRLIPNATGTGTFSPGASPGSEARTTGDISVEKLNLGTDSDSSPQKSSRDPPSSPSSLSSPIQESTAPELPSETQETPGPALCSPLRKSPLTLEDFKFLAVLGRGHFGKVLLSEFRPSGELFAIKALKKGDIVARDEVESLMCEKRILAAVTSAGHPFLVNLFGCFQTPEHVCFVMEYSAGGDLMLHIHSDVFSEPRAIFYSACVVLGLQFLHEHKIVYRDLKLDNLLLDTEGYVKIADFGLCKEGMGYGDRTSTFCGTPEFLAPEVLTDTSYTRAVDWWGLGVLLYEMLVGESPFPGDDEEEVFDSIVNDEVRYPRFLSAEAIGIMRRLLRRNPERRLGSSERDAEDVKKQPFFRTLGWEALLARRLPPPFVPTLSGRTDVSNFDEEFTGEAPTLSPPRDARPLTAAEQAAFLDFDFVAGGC

Chain of UbcH5b (E2 ubiquitin-conjugating enzyme), P62837 (P62837 whole entry, looked up): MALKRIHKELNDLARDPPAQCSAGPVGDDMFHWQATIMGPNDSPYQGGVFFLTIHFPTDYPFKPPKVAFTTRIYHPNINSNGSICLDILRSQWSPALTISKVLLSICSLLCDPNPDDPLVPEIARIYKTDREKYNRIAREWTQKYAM

Protein | in vitro ubiquitination assay, anti-HA western blot [1] | further results
B1 | have the ability to remove ubiquitin from ubiquitinated UbcH5b in order to form poly-ubiquitin chains of the HA-tagged ubiquitin | 
B2 | have the ability to remove ubiquitin from ubiquitinated UbcH5b in order to form poly-ubiquitin chains of the HA-tagged ubiquitin | 
B3 |  | in vitro ubiquitination assay, anti-PKN1 immunoblot [2]: When the reaction was performed in the presence of SspH1 and PKN1 in vitro, anti-PKN1 antibodies detected an additional species migrating at a size >148 kDa; in vitro ubiquitination assay, immunoblots with anti-HA, anti-PKN1 and anti-His antibodies [2]: recombinant SspH1 ubiquitinates PKN1 in vitro; in vitro ubiquitination assay, western blot [1]: recombinant SspH1 has the ability to remove ubiquitin from ubiquitinated UbcH5B, to autoubiquitinate, and to polyubiquitinate Ha-tagged ubiquitin
B4 | have the ability to remove ubiquitin from ubiquitinated UbcH5b in order to form poly-ubiquitin chains of the HA-tagged ubiquitin | 
B5 | have the ability to remove ubiquitin from ubiquitinated UbcH5b in order to form poly-ubiquitin chains of the HA-tagged ubiquitin | 
B6 | have the ability to remove ubiquitin from ubiquitinated UbcH5b in order to form poly-ubiquitin chains of the HA-tagged ubiquitin | 
B7 | have the ability to remove ubiquitin from ubiquitinated UbcH5b in order to form poly-ubiquitin chains of the HA-tagged ubiquitin | 
